± gives the standard deviation of the averaged measurements.
System: ATP
Test: switch fluorescence ratio, 500 uM ATP over buffer (Cy3 cluster intensity, sum of 5 cycles each) (fold (ratio)); higher = stronger signal-on switching upon ATP binding; sequences stand for … in TCGTCGGCAGCGTCAGATGTGTATAAGAGACAGTTTTTTTTTTTTTTTTTTTTTTTTT…TC
Conditions: aptamer strand: ATP DNA aptamer (quencher-CACCTGGGGGAGTATTGCGGAGGAAGG + anchor), 100 nM annealed; ATP concentration: 500 uM
Method in brief: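 Five buffer/ATP imaging cycles were run on Cy3-labelled switching-strand clusters on a modified Illumina MiSeq flow-cell, with NaOH stripping and re-annealing between cycles. In each cycle, clusters annealed to 100 nM quencher-labelled ATP aptamer were imaged in selection buffer, then after 15 min with 500 uM ATP at 22 °C. Per cluster, the fluorescence ratio is summed target-cycle over summed buffer-cycle Cy3 intensity, averaged per switch-domain sequence. Only clusters within 100-1000 RFU were kept.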
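Also: ATP exposure 15 min at 22 °C before imaging.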

Row | Sequence | switch fluorescence ratio
1 | CGGTGGTGGG | 1.031 ± 0.0066
2 | CTCAGCGGGT | 1.49 ± 0.68
3 | TAAAAATCGA | 0.993 ± 0.0013
4 | TCCGATTATG | 1.0175 ± 0.00092
5 | AACTCTTAAG | 1.03 ± 0.02
6 | CTATTGGCAA | 1.06 ± 0.022
7 | ATACTAGGGG | 1.01 ± 0.02
8 | GGGAATTGGT | 0.979 ± 0.02
9 | AGGCGGGCGA | 1.02 ± 0.05
10 | GTTGGGAAAA | 1.01 ± 0.034
11 | GCACCTCAAT | 1.25 ± 0.037
12 | TTTGTCATGT | 0.976 ± 0.036
13 | GGGGGAGAG | 0.979 ± 0.034
14 | TTGAGGGAGC | 1.09 ± 0.038
15 | GGGACCGAAT | 1.004 ± 0.0056
16 | GGAGCAGGCG | 1.04 ± 0.04
17 | GGTTGAAGGG | 1.014 ± 0.0091
18 | TGTTGTAATG | 0.9974 ± 0.0033
19 | GGCTGTGGCG | 0.9761 ± 0.0015
20 | GTTGTGTCTG | 0.979 ± 0.013
21 | CAGATAAGTG | 1.01 ± 0.068
22 | CGGCCCGTAG | 1.02 ± 0.036
23 | AGTGTTGTGG | 0.9904 ± 0.0021

Row | Sequence | switch fluorescence ratio
24 | GAAGGGCATT | 0.9963 ± 0.0015
25 | AAAGAAGGTA | 1 ± 0.026
26 | TTATATGTTG | 1.02 ± 0.026
27 | TTATCGTGTT | 0.984 ± 0.042
28 | AACGGACGCT | 1.16 ± 0.064
29 | GTACTACCTA | 1.14 ± 0.022
30 | TTTAAAATCT | 1.016 ± 0.0092
31 | ATACTTGTAT | 1.0048 ± 0.00054
32 | GGGTGGGCTC | 0.971 ± 0.026
33 | AAGATTTCGG | 1.015 ± 0.0084
34 | GGACCTGGTT | 0.986 ± 0.013
35 | TTTCTGTGCG | 1.001 ± 0.0072
36 | GGATTCCGGC | 0.981 ± 0.053
37 | CAATGATGAC | 1.01 ± 0.018
38 | TAATCAATGT | 0.994 ± 0.011
39 | GGGACGTTAG | 1.09 ± 0.034
40 | TGGGTAGGAT | 1.02 ± 0.018
41 | CTGGTCCGGA | 0.948 ± 0.0035
42 | TGAAAAAACA | 1.02 ± 0.019
43 | TGAGCTGAGG | 0.957 ± 0.049
44 | CCACCGGTAT | 1.69 ± 0.048
45 | GGTGATGGGT | 0.971 ± 0.04
46 | CGCCCCGAGA | 1.02 ± 0.015

Row | Sequence | switch fluorescence ratio
47 | CAAATTTGC | 0.9315 ± 0.0035
48 | TTTTCGAAAA | 1.03 ± 0.075
49 | TTTCATAGC | 1.1 ± 0.065
50 | TATGTCATTT | 0.957 ± 0.011
51 | AGGGTACAGT | 1.04 ± 0.055
52 | TTTCAGAACT | 1.0027 ± 0.00088
53 | GCTCTTAGTG | 0.9894 ± 0.0032
54 | TCAATCCTTG | 0.999 ± 0.035
55 | TATGTAATGT | 0.993 ± 0.031
56 | AACTTTTCAT | 1.02 ± 0.02
57 | GGGTTGAGCG | 1.02 ± 0.012
58 | ACTGTGGAAT | 1.07 ± 0.022
59 | GGGGGGAGAT | 1.04 ± 0.077
60 | ATCCTCGTTG | 1.02 ± 0.03
61 | CTAAATTGCC | 0.9991 ± 0.0056
62 | GCAGTACGGG | 1.42 ± 0.26
63 | AAATGAGTGG | 0.9783 ± 0.006
64 | AGGATGCATT | 1.8 ± 1.1
65 | TTCTGATTGC | 0.984 ± 0.064
66 | CATTGGGGGT | 1.04 ± 0.021
67 | CTGTTCTGTG | 0.951 ± 0.033
68 | GATATGTGGA | 0.995 ± 0.032
69 | TGTATGGGGG | 0.946 ± 0.038

Row | Sequence | switch fluorescence ratio
70 | TCGGAACTCG | 0.9824 ± 0.0063
71 | TCAGTTGTAT | 0.979 ± 0.011
72 | GGAATGGTAG | 1.01 ± 0.099
73 | AGGTTTTTGA | 0.991 ± 0.04
74 | CTAAATAGGG | 1.01 ± 0.049
75 | TAGGGGCCGT | 1.02 ± 0.05
76 | ACTTGTGGGC | 0.973 ± 0.045
77 | CTGACGTTTT | 1.18 ± 0.2
78 | GGAAAAAGGG | 1 ± 0.02
79 | ATGACCTCGG | 1.02 ± 0.07
80 | AATCGCGGGC | 1.09 ± 0.024
81 | GGGTTAAGTG | 1.02 ± 0.018
82 | TTTTTTCGGT | 1.01 ± 0.051
83 | CGCTGTGACT | 1.02 ± 0.031
84 | AGAGAGTTAT | 1.02 ± 0.011
85 | AGGCTGGAGG | 1.01 ± 0.038
86 | ATGTGTTTGC | 0.99 ± 0.053
87 | GACTTTTTTC | 0.9748 ± 0.0053
88 | GACCTATTTC | 1.01 ± 0.019
89 | ACATGATTCG | 0.99 ± 0.03
90 | GGGAATAGAG | 0.99 ± 0.035
91 | CATCTAGGGG | 0.999 ± 0.061
92 | TTTGAAAGGC | 1.76 ± 1.1

Row | Sequence | switch fluorescence ratio
93 | TACAGTTGGC | 1.03 ± 0.084
94 | TAGGGGTAGG | 1.02 ± 0.021
95 | CGGGTGGTGC | 1.014 ± 0.0086
96 | AACTGATTTC | 0.963 ± 0.03
97 | GCGGCAGGGA | 0.997 ± 0.049
98 | TTGTGATTAG | 0.982 ± 0.032
99 | ACTTCAAGGA | 1.04 ± 0.069
100 | CAGGGGAAAT | 0.993 ± 0.029
101 | ACGCATTTGG | 1.1159 ± 0.00088
102 | AAATGTTTGG | 1.01 ± 0.017
103 | GGGTGTGTGG | 1 ± 0.017
104 | CTTGGGAATT | 0.979 ± 0.044
105 | AAATGCTCGG | 0.993 ± 0.03
106 | CTGGGCCGGT | 1.02 ± 0.063
107 | GAGTCTGTCC | 1.019 ± 0.0035
108 | CTGGCAGGAA | 1.01 ± 0.051
109 | TTTTTGGTAG | 1 ± 0.042
110 | CGCTTTAGTT | 0.986 ± 0.026
111 | TGGCTGGGGG | 1.09 ± 0.1
112 | TTGGCAGGGG | 1.06 ± 0.047
113 | GTGTTCATGG | 1 ± 0.012
114 | GTTGGGGGTG | 0.992 ± 0.037
115 | CGTTTTCGGA | 0.982 ± 0.032

Row | Sequence | switch fluorescence ratio
116 | TAAGGCTACA | 1.01 ± 0.016
117 | TAGCTTGTTT | 1.02 ± 0.022
118 | AGCTGCAGTG | 1.02 ± 0.019
119 | CGAGTTTCGG | 1.011 ± 0.0073
120 | AGGGTTGCAT | 0.9863 ± 0.0025
121 | ATGCATGAAA | 1 ± 0.017
122 | CATGGTCATT | 1 ± 0.019
123 | GAGCCATTTT | 0.991 ± 0.041
124 | TTGGAAAGTG | 1.05 ± 0.13
125 | TTGGTTGCGG | 1.02 ± 0.024
126 | GATGGACGTT | 0.995 ± 0.035
127 | TGGTTACAAA | 0.997 ± 0.015
128 | AATATGAGTA | 0.993 ± 0.038
129 | GTTACGAAAA | 1 ± 0.056
130 | CGGGCTTTAT | 1.006 ± 0.0073
131 | AGTTAGTGGT | 0.978 ± 0.023
132 | AAGGAGCTTG | 0.9735 ± 0.0038
133 | ACGTGCCGCA | 1.079 ± 0.0088
134 | AGTTAAGGGA | 0.991 ± 0.062
135 | GTTGCTGGGG | 0.998 ± 0.011
136 | GCTCCTCACA | 1.67 ± 0.2
137 | AAGGTTCTTT | 0.988 ± 0.022
138 | AGAGCCACTG | 1.01 ± 0.024

Row | Sequence | switch fluorescence ratio
139 | AAAATTAAGC | 1.01 ± 0.051
140 | GACAAAAAAA | 1.06 ± 0.012
141 | AGCTTTCCTA | 0.9963 ± 0.007
142 | GTGAGGGTTT | 0.9758 ± 0.005
143 | GGTTTTTGGG | 0.994 ± 0.033
144 | GCTTATTCAG | 0.976 ± 0.013
145 | AACTGTTGTA | 0.986 ± 0.0024
146 | TAATGTTATT | 0.987 ± 0.017
147 | GGCTAACGAC | 1.063 ± 0.0021
148 | ATCAGGTACG | 1.02 ± 0.033
149 | TGGTAAAGCT | 0.994 ± 0.017
150 | TTGAGTAGGT | 0.987 ± 0.031
151 | AGACCTCTTT | 0.988 ± 0.02
152 | TGGATACCCT | 1.0117 ± 0.00031
153 | ACAAATTGCG | 0.991 ± 0.027
154 | AGAGTATGGG | 1.01 ± 0.038
155 | CGAACAGCGA | 1.27 ± 0.015
156 | TAACCTCGCG | 1.04 ± 0.02
157 | TGCAGGGCGT | 1.01 ± 0.031
